The Kd is the concentration at which binding is half-saturated. By koff is commonly meant the first-order rate constant of dissociation. As a reminder, the kon is a measure of how fast the partners come together. One may read the EC50 (read off the curve) as the concentration needed to bring the measured effect to its halfway point.

We go through five molecules from patent US20260146107A1 (ALLIGATOR BIOSCIENCE, published 2026).

Assay [1] deals with human CD40 expressed on cells (CD40 reporter cells, HEK Blue CD40L cells, primary B cells, tumour APCs) (human, UniProt P25942 21-277). As to the kind of experiment: cell-based or functional assay.
Chain of human CD40 expressed on cells (CD40 reporter cells, HEK Blue CD40L cells, primary B cells, tumour APCs) (P25942 21-277): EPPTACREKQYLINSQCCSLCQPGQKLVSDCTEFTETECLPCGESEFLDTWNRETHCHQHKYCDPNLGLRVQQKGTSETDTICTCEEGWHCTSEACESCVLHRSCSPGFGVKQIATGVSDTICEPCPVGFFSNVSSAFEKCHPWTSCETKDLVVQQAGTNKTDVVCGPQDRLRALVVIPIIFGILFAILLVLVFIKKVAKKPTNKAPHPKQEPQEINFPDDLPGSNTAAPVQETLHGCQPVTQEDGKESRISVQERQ
The target in assay [2] is T1, human CEACAM5, recombinant (R&D Systems #4128-CM-050) (human, UniProt P06731 35-685).
T1 construct: Bought; coated in ELISA and used as monomeric analyte in Octet; also called hCEACAM-5; Human CEACAM5-His; not shown: His tag
T1 sequence (looked up): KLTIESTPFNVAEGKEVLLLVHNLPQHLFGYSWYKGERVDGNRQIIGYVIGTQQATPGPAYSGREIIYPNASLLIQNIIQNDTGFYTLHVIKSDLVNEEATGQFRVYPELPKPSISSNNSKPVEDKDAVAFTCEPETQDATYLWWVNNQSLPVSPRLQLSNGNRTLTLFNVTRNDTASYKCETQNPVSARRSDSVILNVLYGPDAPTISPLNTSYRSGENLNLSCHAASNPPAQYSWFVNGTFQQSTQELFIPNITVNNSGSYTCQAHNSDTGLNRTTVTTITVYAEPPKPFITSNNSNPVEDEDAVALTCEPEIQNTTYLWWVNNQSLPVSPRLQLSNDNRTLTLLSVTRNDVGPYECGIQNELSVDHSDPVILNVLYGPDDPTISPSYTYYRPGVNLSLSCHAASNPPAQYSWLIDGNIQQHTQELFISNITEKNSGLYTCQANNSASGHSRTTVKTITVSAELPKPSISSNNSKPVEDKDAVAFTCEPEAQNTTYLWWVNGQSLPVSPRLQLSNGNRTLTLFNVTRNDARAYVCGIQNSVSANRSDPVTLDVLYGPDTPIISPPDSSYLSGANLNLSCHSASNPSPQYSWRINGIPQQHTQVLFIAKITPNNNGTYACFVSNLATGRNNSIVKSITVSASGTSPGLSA
As to the kind of experiment: Octet BLI, captured bsAb, soluble antigen, 1:1 fit. On the procedure: (§1) Kinetic measurements were performed in the Octet RED96 platform using several different setups. […] Monomeric human CD40-His-Avi tag (Acro Biosystems #CD0-H5228), monomeric Human CEACAM5-His (R&D Systems #4128-CM-050) or monomeric Cynomolgus CEACAM5-His (Sino Biological #90891-C08H) were ½ serially diluted in 1× kinetic buffer (Sartorius) starting at 500 nM or 100 nM. […] Binding kinetics was studied in 1× kinetic buffer where association was allowed for 100 sec, 300 sec or 600 sec followed by dissociation for 100 sec, 300 sec or 3600 sec. Sensor tips were regenerated with 10 mM Glycine pH 1.7. Data generated were referenced by subtracting blank or parallel buffer blank, the baseline was aligned to the y-axis, inter-step correction by alignment against dissociation was performed and the data was smoothed by Savitzky-Golay filter in the data analysis software (v9.0.0.14). The processed data was fitted using a 1:1 Langmuir binding model with R² or X² as a measurement of fitting accuracy.
Association was measured for 100 sec and dissociation for 300 sec.

The target of assay [3] is T1, human CEACAM5, recombinant (R&D Systems …). Briefly: Octet BLI, captured bsAb, monomeric CEACAM5 in solution, 1:1 fit. On the procedure: as §1
Association was measured for 100 sec and dissociation was measured for 100 sec.

The target is the same in assay [4]. Briefly: dual-target ELISA: hCEACAM-5 coated, bsAb titrated, detected with biotinylated hCD40-muIg and streptavidin-HRP, luminescence; signal needs both targets bound. On the procedure: (§2) 96-well plates were coated with 0.5 μg/mL antigen, hCEACAM-1 (2244-CM-050, R&D Systems), hCEACAM-5 (4128-CM-050, R&D Systems), hCEACAM-6 (3934-CM-050, R&D Systems) or CEACAM-8 (9639-CM-050, R&D Systems) in PBS over night at 4° C. After washing in PBS/0.05% Tween 20 (PBST), the plates were blocked with PBST, 2% BSA for at least 30 minutes at room temperature before a second round of washing. RUBY bsAbs, diluted in PBST, 0.5% BSA, were then added and allowed to bind for at least 1 hour at room temperature. […] Finally, a final round of washing was performed and bound complexes detected using SuperSignal Pico Luminescent as substrate and luminescence signals were measured using Fluostar Optima.
Background: In an ELISA, binding on a coated surface is turned into a signal by an enzyme label.

For assay [5], the target named is T2, biotinylated human CEACAM5-His (Acro Biosystems #CE5-H82E0) (human, UniProt P06731 35-685, biotinylated (site not stated)).
T2 construct: also called CEACAM5-biotin; captured human CEACAM5-biotin; not shown: His tag
T2 sequence (looked up): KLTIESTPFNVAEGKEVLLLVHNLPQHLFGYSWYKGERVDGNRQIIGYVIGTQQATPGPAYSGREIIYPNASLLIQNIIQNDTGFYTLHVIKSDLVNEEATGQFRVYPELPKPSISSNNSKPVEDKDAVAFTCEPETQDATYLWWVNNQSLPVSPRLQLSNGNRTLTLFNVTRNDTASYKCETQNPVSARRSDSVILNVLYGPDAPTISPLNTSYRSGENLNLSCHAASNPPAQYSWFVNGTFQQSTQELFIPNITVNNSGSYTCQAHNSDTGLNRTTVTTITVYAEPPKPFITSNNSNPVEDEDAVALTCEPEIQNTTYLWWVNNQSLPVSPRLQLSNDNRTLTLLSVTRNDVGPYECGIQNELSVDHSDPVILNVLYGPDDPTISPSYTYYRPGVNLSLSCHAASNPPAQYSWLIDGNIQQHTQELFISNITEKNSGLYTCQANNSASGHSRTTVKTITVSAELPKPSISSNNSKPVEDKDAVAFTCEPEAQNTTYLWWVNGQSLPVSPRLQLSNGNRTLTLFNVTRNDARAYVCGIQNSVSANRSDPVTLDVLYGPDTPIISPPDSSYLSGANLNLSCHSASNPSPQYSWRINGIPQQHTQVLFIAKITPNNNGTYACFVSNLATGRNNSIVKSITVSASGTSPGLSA
Briefly: Octet BLI, captured CEACAM5-biotin, bsAb in solution, 1:1 fit. On the procedure:
as §1
Association was measured for 100 sec and dissociation measured for 100 sec.
For orientation: In BLI a coated tip is dipped into the sample, and binding shifts an interference pattern.

Assay [6] concerns the target T1, human CEACAM5, recombinant (R&D Systems …). As to the kind of experiment: ELISA, antigen coated at 0.5 µg/mL, bsAb titrated, anti-human kappa-HRP, luminescence. On the procedure:
as §2

B1: AC_05339 (bispecific antibody)
heavy 1: not shown
light: DIQMTQSPSSLSASVGDRVTITCRASQSISSYLNWYQEKPGKAPKLLIYAASSLQSGVPSRFSGSGSGTDFTLTISSLQPEDFATYYCQQAGNPHTFGQGTKLEIKRTVAAPSVFIFPPSDEQLKSGTASVVCYLNNFYPREAKVQWKVDNALQSGNSQESVTEQDSKDSTYSLWSTLTLSKADYEKHKVYACEVTHQGLSSPVTKSFNRGEC
heavy 2: EVQLLESGGGLVQPGGSLRLSCAASGFTFSTYGMHWVREAPGKGLEWLSYISGGSSYIFYADSVRGRFTISRDNSENALYLQMNSLRAEDTAVYYCARILRGGSGMDLWGQGTLVTVSSASTKGPSVFPLAPSSKSTSGGTAALGCLVKDYFPEPVTVSWNSGALTSGVHTFPAVLQSSGLYSLSSVVEVPSSSLGTQTYICNVNHKPSNTKVDKKVEPKSC
notes: RUBY format, CEACAM5xCD40; also called AC_5339
Turning to B1, in assay [1], the “EC50 of SEAP release, HEK Blue CD40L reporter cells, bsAb crosslinked to CHO-CEACAM5 cells, 0 Raji sink cells/well” value was determined as 0.03 nM; the “EC50 of SEAP release, same assay, 10 000 Raji sink cells/well” value amounted to 0.05 nM; the “EC50 of SEAP release, same assay, 30 000 Raji sink cells/well” value was 0.08 nM; the “EC50 of SEAP release, same assay, 90 000 Raji sink cells/well” value was determined as 0.23 nM. Also, in assay [2], the Kd was less than 0.001 nM, the koff was less than 1e-07 s⁻¹ and the kon stood at 520000 M⁻¹ s⁻¹. In assay [3], the Kd was determined as 1.8 nM, the dissociation rate constant (koff) is 0.00042 s⁻¹ and the kon was 240000 M⁻¹ s⁻¹. In assay [4], the “EC50 (read off the curve)” value was approximately 0.3 nM.

B2: Multi44 (bispecific antibody)
heavy 1: not shown
light: DIQMTQSPSSLSASVGDRVTITCRASQSISSYLNWYQEKPGKAPKLLIYAASSLQSGVPSRFSGSGSGTDFTLTISSLQPEDFATYYCQQWGYLLTFGQGTKLEIKRTVAAPSVFIFPPSDEQLKSGTASVVCYLNNFYPREAKVQWKVDNALQSGNSQESVTEQDSKDSTYSLWSTLTLSKADYEKHKVYACEVTHQGLSSPVTKSFNRGEC
heavy 2: EVQLLESGGGLVQPGGSLRLSCAASGFTFSTYGMHWVREAPGKGLEWLSYISGGSSYIFYADSVKGRFTISRDNSKNTLYLQMNSLRAEDTAVYYCARILRGGSGMDLWGQGTLVTVSSASTKGPSVFPLAPSSKSTSGGTAALGCLVKDYFPEPVTVSWNSGALTSGVHTFPAVLQSSGLYSLTSVVEVPSSSLGTQTYICNVNHKPSNTKVDKKVEPKSC
notes: Optimised RUBY format, CEACAM5xCD40
As to B2, in assay [1], the “EC50 of SEAP release, HEK Blue CD40L reporter cells, bsAb crosslinked to CHO-CEACAM5 cells, 0 Raji sink cells/well” value stood at 0.02 nM; the “EC50 of SEAP release, same assay, 10 000 Raji sink cells/well” value was found to be 0.05 nM; the “EC50 of SEAP release, same assay, 30 000 Raji sink cells/well” value is 0.08 nM; the “EC50 of SEAP release, same assay, 90 000 Raji sink cells/well” value worked out at 0.16 nM. In assay [5], the Kd is less than 0.001 nM, the koff is less than 1e-07 s⁻¹ and the kon came out at 150000 M⁻¹ s⁻¹. In assay [3], the dissociation constant (Kd) was 13 nM, the dissociation rate constant (koff) is 0.0023 s⁻¹ and the on-rate (kon) was 180000 M⁻¹ s⁻¹. Besides, in assay [6], the “EC50 (read off the curve)” value is approximately 0.5 nM. The “EC50 (read off the curve)” value in assay [4] is approximately 0.8 nM.

B3: Multi48 (bispecific antibody)
heavy 1: not shown
light: DIQMTQSPSSLSASVGDRVTITCRASQSISSYLNWYQEKPGKAPKLLIYAASSLQSGVPSRFSGSGSGTDFTLTISSLQPEDFATYYCQQYGRNPPTFGQGTKLEIKRTVAAPSVFIFPPSDEQLKSGTASVVCYLNNFYPREAKVQWKVDNALQSGNSQESVTEQDSKDSTYSLWSTLTLSKADYEKHKVYACEVTHQGLSSPVTKSFNRGEC
heavy 2: EVQLLESGGGLVQPGGSLRLSCAASGFTFGDHAMSWVREAPGKGLEWVSAISGYGHSTGYADSVKGRFTISRDNSKNTLYLQMNSLRAEDTAVYYCARNHYRVGLDYWGQGTLVTVSSASTKGPSVFPLAPSSKSTSGGTAALGCLVKDYFPEPVTVSWNSGALTSGVHTFPAVLQSSGLYSLTSVVEVPSSSLGTQTYICNVNHKPSNTKVDKKVEPKSC
notes: Optimised RUBY format, CD40xCEACAM5
With B3, in assay [3], the Kd was less than 0.001 nM, the off-rate constant (koff) was less than 1e-07 s⁻¹ and the kon worked out at 24000 M⁻¹ s⁻¹. Also, the “EC50 (read off the curve)” value in assay [6] was approximately 3 nM.

B4: Multi38 (bispecific antibody)
heavy 1: not shown
light: not shown
heavy 2: EVQLLESGGGLVQPGGSLRLSCAASGFTFGDHAMSWVREAPGKGLEWVSAISGYGHSTGYADSVKGRFTISRDNSKNTLYLQMNSLRAEDTAVYYCARNHYRVGLDYWGQGTLVTVSSASTKGPSVFPLAPSSKSTSGGTAALGCLVKDYFPEPVTVSWNSGALTSGVHTFPAVLQSSGLYSLTSVVEVPSSSLGTQTYICNVNHKPSNTKVDKKVEPKSC
notes: Optimised RUBY format, CD40xCEACAM5 (Fab8); also called Muli38
For B4, in assay [6], the 50% effective concentration (EC50 (read off the curve)) is approximately 2 nM.

B5: Multi49 (bispecific antibody)
heavy 1: not shown
light: DIQMTQSPSSLSASVGDRVTITCRASQSISSYLNWYQEKPGKAPKLLIYAASSLQSGVPSRFSGSGSGTDFTLTISSLQPEDFATYYCQQYGRNPPTFGQGTKLEIKRTVAAPSVFIFPPSDEQLKSGTASVVCYLNNFYPREAKVQWKVDNALQSGNSQESVTEQDSKDSTYSLWSTLTLSKADYEKHKVYACEVTHQGLSSPVTKSFNRGEC
heavy 2: EVQLLESGGGLVQPGGSLRLSCAASGFTFYDHAMSWVREAPGKGLEWVSAISGSYGSTGYADSVKGRFTISRDNSKNTLYLQMNSLRAEDTAVYYCARWGGWAGDIDYWGQGTLVTVSSASTKGPSVFPLAPSSKSTSGGTAALGCLVKDYFPEPVTVSWNSGALTSGVHTFPAVLQSSGLYSLTSVVEVPSSSLGTQTYICNVNHKPSNTKVDKKVEPKSC
notes: as for B3
Take B5: in assay [3], the dissociation constant (Kd) is less than 0.001 nM, the off-rate (koff) is less than 1e-07 s⁻¹ and the kon amounted to 28000 M⁻¹ s⁻¹. In addition, in assay [6], the “EC50 (read off the curve)” value is approximately 3 nM.
